Assay results published in the DeepSol protein solubility set.

Assay: soluble on expression in E. coli; label from the status in PepcDB or PDB records

Sequence | soluble on expression in E. coli
MLLSLYIPPGRPIPDVLNLLRQEYSIAQNIKLKRTRDAVTSAIQSAIDRLTQIPKVPDNGLVIFCGENFETEESKCFVFSPPEKVTIFFYRTDKYFHTEFLEDMIEENDVFGLIIVERDYATIGILKGTRIEVLDEFEGFVPGKHMMGGQSQRRIDRIIEEMYANFLKEVGEKANSYLLPYLESGKLKGILLGGPGYAKKDFYDGDYLDYRLKKLVLLPLIDIPDQGDAGLKELVMKAQDILKNQKYVQVQNLLEELKYHIAKDDGLVVYGIEEIRKALHMGAVDSLVIYDEPNSELEKLSQEAENYGTKVYVVGDELPDAEWVKKTFGGAIGKLRYKIY | soluble
MSLAHLAAMFDDLVARFGDRPAIVDDRALSYRELDLLVRKIAVSLAALGIGKGDRVALFLGNCWEFLAVTLACNRLGVLVVPIGIRQRRAELEFLLNNSGAKVVVFEAELTDEIPAAAEVPQLAHRFVAHGTAEGARPFEDLLAAEPANAPLAEMHEDDTAVILYTSGTTGKPKGAELTHLSILHSSYAFARAHELTERDRGLVAVPLSHVTGLVGVSYATIAAGGCVVLMRQAFKTVDFLALAARERITYSILVPAIYTLAVMHPEFDKHDLSAWRIGCFGGAPMPVPTIEMLAKRLPNLQLRNAYGATETTSPTTIMPQAYWRDHMDSVGQAVPYAHVRVLDADDNEVAPGEPGELLIAGPMVVPRYWQRPDANAKEFVNGYWRSGDIGSIDQDGFVRVFDRKKDMINRGGFKIFSAEVENVICGIDGVLETAIIGTPDPVLGERVNAIVVTSEGASLSERDVAAYCAARMSDYKVPESIIIRSEPLPRNANGKIQKTVLRETIADRAASYAREGHHHHHH | not soluble
MIYKACIRKRCGGVCVGEELKPEKIQEIRLGDCPICGGKGTLKAIQFIHRIPYFGEVMESTVVCERCGYRNSDVIILEEREPRLYEVKVEEEKDLFIRVVRSKSGTIELEELGIKIEPGPAAEGFVSNIEGVLERAKEVLLMARDFKEQENDREAVRRIDELLKYIEEVKEGKKPLTVRIMDPFGNSALIGEKVKSRKLTKEEIRKLSKGPYIVIEPDEVPQQLEHHHHHH | not soluble
MGSDKIHHHHHHMGNATRIYEKHVDIKKDTVQDFWNKRAKKHIPENPYISVKCNDQNPDYAKNLDKYEKEIIIPKLNITRNSNILDIGCGVGRLADDIVPICNYYLGTDFAEDLISIAKKRFSDNDCDFQVCDFINTLYDTKVKSKMPFDTILLAGVTMYINDDELKIALKNLLGILDKKATIYISIPIGINKRLTLKEFYSKELNSEYNVIYRTIEEYEEILKPLLDEGFEIVESKSFLTDINQYSDTERHYFILKR | not soluble
MAEGEDVGWWRSWLQQSYQAVKEKSSEALEFMKRDLTEFTQVVQHDTACTIAATASVVKEKLATEGSSGATEKMKKGLSDFLGVISDTFAPSPDKTIDCDVITLMGTPSGTAEPYDGTKARLYSLQSDPATYCNEPDGPPELFDAWLSQFCLEEKKGGISELLVGSPSIRALYTKMVPAAVSHSEFWHRYFYKVHQLEQEQARRDALKQRAEQSISEEPGWEEEEEELMGISPISPKEAKVPVAKISTFPEGEPGPQSPCEENLVTSVEPPAEVTPSESSESISLVTQIANPATAPEARVLPKDLSQKLLEASLEEQGLAVDVGETGPSPPIHSKPLTPAGHTGGPEPRPPARVETLREEAPTDLRVFELNSDSGKSTPSNNGKKGSSTDISEDWEKDFDLDMTEEEVQMALSKVDASGELEDVEWEDWE | soluble
MSLSTNLITTGIGTEQLEQLLSEYFPTYQISRIDRDSTGRKGALEHHLNAIQTGKSQILIGTQMLAKGHHFPNVTLVALVNVDSALFSTDFRAEERLAQLYLQVAGRAGRAEKTGEVVLQTHYPDHPLLKCLLKDGYNAFAEEALKMRQVMALPPFTAQVLFRATGKQSDKVEHLLQNLTAYFQHKSVELGIEGIQISPPFSAIVAKKAGYYRWLLLIQHQSRSAIQQLLNVFDQEKSALNLPANIRLSLDVDPYDMSEGHHHHHH | not soluble
GQLDDVLMPYVGDQTEAQIYKKLRHFWIMLDRTLPDAFMHVNIGPTDNIICRTILRVDAELKQIAPNLTFMYDESITPDDLLRQATKNICDCSKPHIANYPIHANAYDGERFGIVSCYNSLPLAGGSNTLVRMNLKEVAKRAASRDDFFSNVLPTYHQLMTELMDARSSHLHEQSQFFQGFLTQEGLIEESRFAPMYGIYGMAEAVNLLLEKEGQTSRYGQDERANALGHEISASLATLVDSTPVRYGLEGKALLHAQGGISLDLDVTPGVRLPYGNEPDPVTYVQATAAHHQYYRAGISDILTIDETVKSNPEAMFNLCKGALNAGYREFTANVASNDLVRVTGYMVKLSDIAKYDAEGSRTNTTFLGAEAAKNTGILERSPRVVSQEMSPVYK | not soluble
MAHHHHHHMTITLDSFNEQKVHNNQNKRKYNCRLNFKRFTKRRNNYNEDNRDSKINIKTALIKNEVISDDNDEFIDSNLMRTCHRFRLYKHSSNKIDIYYPYDKKKLDKYDYERDQTFCSLTDIEDVVNNGDDKSSKFFYYKNKSLNDYKSCFEKKNKKTKWFRLRKKKKKDHAMDESLKYLNESVCSNYKEANKNNKLDNSSKYSKNCVINTTVNGIRGFSAWIF | not soluble
MSGIFSVYVGNAPFQTTEEELGNFFSSIGQINNVRIVCDRETGRPRGFAFIEFAEEGSAQRAVEQMNGAEFNGRPLRVNLANK | soluble
INALVIGDLMLDQYLWGKAERISPEAPVQVVDVTREEIRIGGAGNVANNLVALGCRVSVASVVGGDENGTILLHAFSGKGIDVTGIVEDPSRTTSRKTRVLASNQQIVRIDRESRDEIGPDNERRIVDYLNAHGDRFNVILVSDYLKGVLTPTLLAEVIAFARKREIPVVVDPKGSDYAKYRGATVLTPNRKEAEAASGIAIRDDESLCRAGERLLETADLTALVITRSEEGMSLFLRGGQVVHIPTYAREVFDVTGAGDTVLAVLGMALAGGVGFADGARLANVAAGVAVGKVGTSTVSPAEIVGSLG | not soluble
AEGGFLEDAKTDLVLRNYYFNRDFRDHDAGKSLVDEWAQGFILKFSSGYTPGTVGVGLDAIGLFGVKLNSGRGTSNSELLPLHDDGRAADNYGRVGVAAKLRVSASELKIGEMLPDIPLLRYDDGRLLPQTFRGFAVVSRELPGLALQAGRFDAVSLRNSADMQDLSAWSAPTQKSDGFNYAGAEYRFNRERTQLGLWHGQLEDVYRQSYANLLHKQRVGDWTLGANLGLFVDRDDGAARAGEIDSHTVYGLFSAGIGLHTFYLGLQKVGGDSGWQSVYGSSGRSMGNDMFNGNFTNADERSWQVRYDYDFVGLGWPGLIGMVRYGHGSNATTKAGSGGKEWERDVELGYTVQSGPLARLNVRLNHASNRRSFNSDFDQTRLVVSYPLSW | soluble
MSLITVNTLQKMKAAGEKIAMLTAYESSFAALMDDAGVEMLLVGDSLGMAVQGRKSTLPVSLRDMCYHTECVARGAKNAMIVSDLPFGAYQQSKEQAFAAAAELMAAGAHMVKLEGGVWMAETTEFLQMRGIPVCAHIGLTPQSVFAFGGYKVQGRGGKAQALLNDAKAHDDAGAAVVLMECVLAELAKKVTETVSCPTIGIGAGADCDGQVLVMHDMLGIFPGKTAKFVKNFMQGHDSVQAAVRAYVAEVKAKTFPAAEHIFADEGGSHHHHHH | soluble
MGSDKIHHHHHHMNRAATLAAYLTEKNWMSQPVSAGQVSFLAAGEYNENWLVQCGGRAAVLRINHGSQLGLRNQSEYEFSVLRHVASSGLTPQPYALDPLPWKHGPGKGAMLMEYIPGTPPDYRLHAADAARLFARVHGCPLPPRGDMIVQPDPVRDIARESTGLLHRQPDHPRSDIRTRLLNYRDTVLRLADDTAQLFAGEPQVITNTEVNSGNFIVLPPQHPRRGNEQAGVALCLVDWEKAVISCCHQDLGHFLVPTTTRWKTDFTFDAQSRTDFLRAYLQARHGSVDADALEALHLRTRVLERTILLRALSWCFMAWYEYSRGDRTLRNEFTYGRITSYLENIECILKYGE | not soluble
FFFSGGVPLDASLFEHKKLDPTQVRQVLQLVLWKLESLRQWEKERITGCIQAVAEHLQLKLRDVMPLMFPAITGHASSVSVLDAMEILGADLSRYRLRQALELLGGASKKETKEWEKIRDAIPG | not soluble
